Patent publication US20230287084A1

Tests used:
Assay in all cases: cell-based or functional assay
BMP-10 = biological target: T1, BMP-10 (UniProt O95393)
T1 sequence (looked up): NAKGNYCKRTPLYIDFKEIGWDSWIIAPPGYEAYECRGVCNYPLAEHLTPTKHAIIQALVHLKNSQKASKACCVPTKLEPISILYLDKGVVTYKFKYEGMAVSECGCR

BMP-9 = biological target: T2, BMP-9 (UniProt Q9UK05)
T2 sequence (looked up): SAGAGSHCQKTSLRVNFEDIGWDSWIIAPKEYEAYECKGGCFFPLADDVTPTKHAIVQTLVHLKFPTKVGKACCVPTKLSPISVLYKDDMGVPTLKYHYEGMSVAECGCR

GDF-11 = biological target: T3, GDF-11 (UniProt O95390)
T3 sequence (looked up): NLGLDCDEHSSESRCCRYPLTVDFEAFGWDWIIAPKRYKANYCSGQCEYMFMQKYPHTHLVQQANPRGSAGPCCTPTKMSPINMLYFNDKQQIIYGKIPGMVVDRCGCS

GDF-8 = biological target: T4, GDF-8 (UniProt O14793)
T4 sequence (looked up): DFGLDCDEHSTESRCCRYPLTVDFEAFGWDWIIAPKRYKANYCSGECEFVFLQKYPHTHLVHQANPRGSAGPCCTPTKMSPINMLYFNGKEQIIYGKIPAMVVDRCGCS

activin A = biological target: T5, activin A (UniProt P08476)
T5 sequence (looked up): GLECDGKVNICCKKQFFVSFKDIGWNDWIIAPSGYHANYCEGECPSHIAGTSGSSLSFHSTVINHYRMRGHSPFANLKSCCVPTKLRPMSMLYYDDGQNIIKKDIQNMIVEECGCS

activin B = biological target: T6, activin B (UniProt P09529)
T6 sequence (looked up): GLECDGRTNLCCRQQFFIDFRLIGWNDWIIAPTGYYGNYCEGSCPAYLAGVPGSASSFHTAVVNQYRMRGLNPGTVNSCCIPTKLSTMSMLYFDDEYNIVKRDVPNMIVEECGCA

Substance: P719 (hActRIIB - Q29Y + F58E, 14aa linker, IgG1 FcDL) (Fc fusion)
- Average IC50, BMP-10 neutralization (HepG2 BMP-reporter) (BMP-10): 1.7 nM
- Average IC50, BMP-9 neutralization (HepG2 BMP-reporter) (BMP-9): > 100 nM
- Avg IC50, GDF-11 neutralization (HEK293 TGFβ-reporter) (GDF-11): 0.58 nM
- Avg IC50, GDF-8 neutralization (HEK293 TGFβ-reporter) (GDF-8): 0.61 nM
- Avg IC50, activin A neutralization (HEK293 TGFβ-reporter) (activin A): 0.63 nM
- Avg IC50, activin B neutralization (HEK293 TGFβ-reporter) (activin B): 2.3 nM

Substance: P715 (hActRIIB - F58W, 14aa linker, IgG1 FcDL) (Fc fusion)
- Average IC50, BMP-10 neutralization (HepG2 BMP-reporter) (BMP-10): 2.4 nM
- Average IC50, BMP-9 neutralization (HepG2 BMP-reporter) (BMP-9): 60 nM
- Avg IC50, GDF-11 neutralization (HEK293 TGFβ-reporter) (GDF-11): 0.9 nM
- Avg IC50, GDF-8 neutralization (HEK293 TGFβ-reporter) (GDF-8): 0.83 nM
- Avg IC50, activin A neutralization (HEK293 TGFβ-reporter) (activin A): 0.9 nM
- Avg IC50, activin B neutralization (HEK293 TGFβ-reporter) (activin B): 1.4 nM

Substance: P698 (hActRIIB - F58K, 3aa linker, IgG1 FcDL) (Fc fusion)
- Average IC50, BMP-9 neutralization (HepG2 BMP-reporter) (BMP-9): 657 nM
- fold lower inhibition potency relative to P444 (BMP-9): 2.6 fold
- Avg IC50, GDF-8 neutralization (HEK293 TGFβ-reporter) (GDF-8): 2.1 nM
- fold higher inhibition potency relative to P444 (GDF-8): 1.5 fold
- Avg IC50, activin A neutralization (HEK293 TGFβ-reporter) (activin A): 4.3 nM

Substance: P759 (hActRIIB - D57E, 14aa linker, IgG1 FcDL) (Fc fusion)
- Average IC50, BMP-10 neutralization (HepG2 BMP-reporter) (BMP-10): > 1000 nM
- Average IC50, BMP-9 neutralization (HepG2 BMP-reporter) (BMP-9): > 1000 nM
- % increase of potency relative to P120 (GDF-11): 86%
- Avg IC50, GDF-11 neutralization (HEK293 TGFβ-reporter) (GDF-11): 137 nM
- % increase of potency relative to P120 (GDF-8): 60%
- Avg IC50, GDF-8 neutralization (HEK293 TGFβ-reporter) (GDF-8): 397 nM
- % increase of potency relative to P120 (activin A): 73%
- Avg IC50, activin A neutralization (HEK293 TGFβ-reporter) (activin A): 274 nM
- % increase of potency relative to P120 (activin B): 77%
- Avg IC50, activin B neutralization (HEK293 TGFβ-reporter) (activin B): 227 nM

Substance: P701 (hActRIIB - F58K, 14aa linker, IgG1 FcDL) (Fc fusion)
- Average IC50, BMP-10 neutralization (HepG2 BMP-reporter) (BMP-10): 0.96 nM
- Average IC50, BMP-9 neutralization (HepG2 BMP-reporter) (BMP-9): 386 nM
- Avg IC50, GDF-11 neutralization (HEK293 TGFβ-reporter) (GDF-11): 0.75 nM
- Avg IC50, GDF-8 neutralization (HEK293 TGFβ-reporter) (GDF-8): 1.1 nM
- Avg IC50, activin A neutralization (HEK293 TGFβ-reporter) (activin A): 0.52 nM
- Avg IC50, activin B neutralization (HEK293 TGFβ-reporter) (activin B): 0.55 nM

Substance: P718 (hActRIIB - D57E + F58E, 3aa linker, IgG1 FcDL) (Fc fusion)
- Average IC50, BMP-10 neutralization (HepG2 BMP-reporter) (BMP-10): > 1000 nM
- Average IC50, BMP-9 neutralization (HepG2 BMP-reporter) (BMP-9): > 1000 nM
- Avg IC50, GDF-11 neutralization (HEK293 TGFβ-reporter) (GDF-11): > 1000 nM
- Avg IC50, GDF-8 neutralization (HEK293 TGFβ-reporter) (GDF-8): > 1000 nM
- Avg IC50, activin A neutralization (HEK293 TGFβ-reporter) (activin A): > 1000 nM
- Avg IC50, activin B neutralization (HEK293 TGFβ-reporter) (activin B): > 1000 nM

Substance: P708 (hActRIIB - F58Q, 14aa linker, IgG1 FcDL) (Fc fusion)
- Average IC50, BMP-10 neutralization (HepG2 BMP-reporter) (BMP-10): 1.4 nM
- Average IC50, BMP-9 neutralization (HepG2 BMP-reporter) (BMP-9): 110 nM
- Avg IC50, GDF-11 neutralization (HEK293 TGFβ-reporter) (GDF-11): 0.42 nM
- Avg IC50, GDF-8 neutralization (HEK293 TGFβ-reporter) (GDF-8): 0.55 nM
- Avg IC50, activin A neutralization (HEK293 TGFβ-reporter) (activin A): 0.62 nM
- Avg IC50, activin B neutralization (HEK293 TGFβ-reporter) (activin B): 0.66 nM

Substance: P75 (wild type human ActRIIB-ECD-Fc) (Fc fusion)
- Average IC50, BMP-10 neutralization (HepG2 BMP-reporter) (BMP-10): 2 nM
- Average IC50, BMP-9 neutralization (HepG2 BMP-reporter) (BMP-9): 2.7 nM
- Avg IC50, GDF-11 neutralization (HEK293 TGFβ-reporter) (GDF-11): 0.76 nM
- Avg IC50, GDF-8 neutralization (HEK293 TGFβ-reporter) (GDF-8): 0.67 nM
- Avg IC50, activin A neutralization (HEK293 TGFβ-reporter) (activin A): 2.3 nM
- Avg IC50, activin B neutralization (HEK293 TGFβ-reporter) (activin B): 1.4 nM

Substance: P761 (hActRIIB - K31Y, 14aa linker, IgG1 FcDL) (Fc fusion)
- Average IC50, BMP-10 neutralization (HepG2 BMP-reporter) (BMP-10): 22 nM
- % increase of potency relative to P124 (BMP-9): 83%
- Average IC50, BMP-9 neutralization (HepG2 BMP-reporter) (BMP-9): 8.7 nM
- % decrease of potency relative to P124 (GDF-11): 61%
- Avg IC50, GDF-11 neutralization (HEK293 TGFβ-reporter) (GDF-11): 8.6 nM
- % decrease of potency relative to P124 (GDF-8): 64%
- Avg IC50, GDF-8 neutralization (HEK293 TGFβ-reporter) (GDF-8): 12 nM
- % decrease of potency relative to P124 (activin A): 58%
- Avg IC50, activin A neutralization (HEK293 TGFβ-reporter) (activin A): 8.4 nM
- % decrease of potency relative to P124 (activin B): 88%
- Avg IC50, activin B neutralization (HEK293 TGFβ-reporter) (activin B): 41 nM

Substance: P720 (hActRIIB - D30Q + F58E, 14aa linker, IgG1 FcDL) (Fc fusion)
- Average IC50, BMP-10 neutralization (HepG2 BMP-reporter) (BMP-10): 2.3 nM
- Average IC50, BMP-9 neutralization (HepG2 BMP-reporter) (BMP-9): 914 nM
- Avg IC50, GDF-11 neutralization (HEK293 TGFβ-reporter) (GDF-11): 0.54 nM
- Avg IC50, GDF-8 neutralization (HEK293 TGFβ-reporter) (GDF-8): 0.77 nM
- Avg IC50, activin A neutralization (HEK293 TGFβ-reporter) (activin A): 0.97 nM
- Avg IC50, activin B neutralization (HEK293 TGFβ-reporter) (activin B): 2.7 nM

Substance: P762 (hActRIIB - V75Q, 14aa linker, IgG1 FcDL) (Fc fusion)
- Average IC50, BMP-10 neutralization (HepG2 BMP-reporter) (BMP-10): > 1000 nM
- Average IC50, BMP-9 neutralization (HepG2 BMP-reporter) (BMP-9): > 1000 nM
- Avg IC50, GDF-11 neutralization (HEK293 TGFβ-reporter) (GDF-11): 27 nM
- Avg IC50, GDF-8 neutralization (HEK293 TGFβ-reporter) (GDF-8): 66 nM
- Avg IC50, activin A neutralization (HEK293 TGFβ-reporter) (activin A): > 1000 nM
- Avg IC50, activin B neutralization (HEK293 TGFβ-reporter) (activin B): > 1000 nM

Substance: P444 (wild type human ActRIIA-ECD-Fc) (Fc fusion)
- Average IC50, BMP-10 neutralization (HepG2 BMP-reporter) (BMP-10): 3.7 nM
- Average IC50, BMP-9 neutralization (HepG2 BMP-reporter) (BMP-9): 248 nM
- IC50, BMP-9 neutralization (HepG2 BMP-reporter) (BMP-9): > 100 nM
- Avg IC50, GDF-11 neutralization (HEK293 TGFβ-reporter) (GDF-11): 1.6 nM
- Avg IC50, GDF-8 neutralization (HEK293 TGFβ-reporter) (GDF-8): 3.1 nM
- IC50, GDF-8 neutralization (HEK293 TGFβ-reporter) (GDF-8): 3.06 nM
- Avg IC50, activin A neutralization (HEK293 TGFβ-reporter) (activin A): 2.7 nM
- Avg IC50, activin B neutralization (HEK293 TGFβ-reporter) (activin B): 0.95 nM

Substance: P709 (hActRIIB - F58Q, 39aa linker, IgG1 FcDL) (Fc fusion)
- Average IC50, BMP-9 neutralization (HepG2 BMP-reporter) (BMP-9): 58 nM
- Avg IC50, GDF-8 neutralization (HEK293 TGFβ-reporter) (GDF-8): 0.29 nM
- fold increase of inhibition potency relative to P1218 (GDF-8): 2.8 fold
- Avg IC50, activin A neutralization (HEK293 TGFβ-reporter) (activin A): 0.42 nM
- fold increase of inhibition potency relative to P1218 (activin A): 2.6 fold

Substance: P757 (WT hActRIIB, 14aa linker, IgG1 FcDL) (Fc fusion)
- % increase of potency relative to P75 (BMP-10): 67%
- Average IC50, BMP-10 neutralization (HepG2 BMP-reporter) (BMP-10): 1.2 nM
- % increase of potency relative to P75 (BMP-9): 900%
- Average IC50, BMP-9 neutralization (HepG2 BMP-reporter) (BMP-9): 0.27 nM
- % increase of potency relative to P75 (GDF-11): 124%
- Avg IC50, GDF-11 neutralization (HEK293 TGFβ-reporter) (GDF-11): 0.34 nM
- % increase of potency relative to P75 (GDF-8): 116%
- Avg IC50, GDF-8 neutralization (HEK293 TGFβ-reporter) (GDF-8): 0.31 nM
- % increase of potency relative to P75 (activin A): 389%
- Avg IC50, activin A neutralization (HEK293 TGFβ-reporter) (activin A): 0.47 nM
- % increase of potency relative to P75 (activin B): 155%
- Avg IC50, activin B neutralization (HEK293 TGFβ-reporter) (activin B): 0.55 nM

Substance: P758 (hActRIIB - G27D, 14aa linker, IgG1 FcDL) (Fc fusion)
- Average IC50, BMP-10 neutralization (HepG2 BMP-reporter) (BMP-10): 1.9 nM
- Average IC50, BMP-9 neutralization (HepG2 BMP-reporter) (BMP-9): 1.2 nM
- Avg IC50, GDF-11 neutralization (HEK293 TGFβ-reporter) (GDF-11): 1.4 nM
- Avg IC50, activin A neutralization (HEK293 TGFβ-reporter) (activin A): 1.1 nM
- Avg IC50, activin B neutralization (HEK293 TGFβ-reporter) (activin B): 2.4 nM

Substance: P694 (hActRIIB - F58Y, 14aa linker, IgG1 FcDL) (Fc fusion)
- Average IC50, BMP-10 neutralization (HepG2 BMP-reporter) (BMP-10): 1.9 nM
- Average IC50, BMP-9 neutralization (HepG2 BMP-reporter) (BMP-9): 1.8 nM
- Avg IC50, GDF-11 neutralization (HEK293 TGFβ-reporter) (GDF-11): 0.73 nM
- Avg IC50, GDF-8 neutralization (HEK293 TGFβ-reporter) (GDF-8): 0.65 nM
- Avg IC50, activin A neutralization (HEK293 TGFβ-reporter) (activin A): 0.79 nM
- Avg IC50, activin B neutralization (HEK293 TGFβ-reporter) (activin B): 1.3 nM
